Laboratory results taken from paper PMC3976097.

Tests used:
[1] = molecular target: Recombinant human IFN-α/β R2-Fc chimera (human) (UniProt P48551)
[2] = molecular target: Recombinant human IFN-α/β R2-Fc chimera (human) (UniProt P48551); experiment: SPR; BIAcore T-100; human IFNR2-Fc captured on a CM5 chip by an immobilized anti-human IgG Fc antibody; Nova or IFN-α2b in the solution phase; binding measured under equilibrium conditions

Chain of UniProt P48551 (P48551 27-243, change not shown): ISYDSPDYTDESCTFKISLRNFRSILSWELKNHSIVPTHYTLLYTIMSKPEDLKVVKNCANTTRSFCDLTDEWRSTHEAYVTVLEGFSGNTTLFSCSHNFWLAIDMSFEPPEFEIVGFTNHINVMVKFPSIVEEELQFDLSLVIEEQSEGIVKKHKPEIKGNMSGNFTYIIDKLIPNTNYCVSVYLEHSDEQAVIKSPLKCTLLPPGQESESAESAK

- anti-tumor activity against Daudi cell lines (MTT anti-proliferative assay) [1]: 2.74e+10 U/mg
- anti-virus activity, WISH/VSV system (cytopathic effect reduction assay) [1]: 1.34e+09
- Kd [2]: 0.0123 nM
Substance: Novaferon (ligand)
